Holding throughout (test): Kinase Profiling Assay
Holding throughout (assay type): biochemical
Common to all, as to conditions: 100 μM

In assay [1] the target is T1, CaMKIIγ (h) (Homo sapiens, UniProt Q13555).
T1 construct: purchased Millipore
How it is done:
(§1) Every kinase activity measurement was conducted in duplicate.
(§2) Specifically, in these assays, a positively charged substrate is phosphorylated with a radiolabeled phosphate group from an ATP if the kinase is not inhibited by an inhibitor peptide. The positively charged substrate then is attracted to a negatively charged filter membrane, quantified with a scintillation counter, and compared to a 100% activity control.
(§3) In addition to determining the IC50 of the compound, the specificity of MK2 inhibitory peptides was assessed by examining activities of all 266 human kinases available for testing in the Millipore kinase profiling service (Table 1).

In assay [2] the target is T2, EGFR (h) (Homo sapiens, UniProt P00533).
T2 construct: purchased Millipore
How it is done:
as §1, §2, §3

The target in assay [3] is T3, TSSK2 (h) (Homo sapiens, UniProt Q96PF2).
T3 sequence (Q96PF2 1-358): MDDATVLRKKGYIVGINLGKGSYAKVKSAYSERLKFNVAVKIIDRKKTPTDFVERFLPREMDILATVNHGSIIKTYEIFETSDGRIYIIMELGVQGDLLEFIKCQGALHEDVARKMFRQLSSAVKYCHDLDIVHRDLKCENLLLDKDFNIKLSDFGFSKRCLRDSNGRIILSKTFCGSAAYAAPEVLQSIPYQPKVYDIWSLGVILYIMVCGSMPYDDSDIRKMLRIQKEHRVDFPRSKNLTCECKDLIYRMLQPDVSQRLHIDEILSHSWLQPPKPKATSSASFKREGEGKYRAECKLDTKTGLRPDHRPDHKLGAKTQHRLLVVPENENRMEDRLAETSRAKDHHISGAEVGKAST
As for the experimental part: as §1, §2, §3

Assay [4] deals with ZIPK (h) (Homo sapiens, UniProt O43293). As for the experimental part:
as §1, §2, §3

Assay [5] has as its target T4, ARK5 (h) (Homo sapiens, UniProt O60285).
T4 sequence (O60285 1-661): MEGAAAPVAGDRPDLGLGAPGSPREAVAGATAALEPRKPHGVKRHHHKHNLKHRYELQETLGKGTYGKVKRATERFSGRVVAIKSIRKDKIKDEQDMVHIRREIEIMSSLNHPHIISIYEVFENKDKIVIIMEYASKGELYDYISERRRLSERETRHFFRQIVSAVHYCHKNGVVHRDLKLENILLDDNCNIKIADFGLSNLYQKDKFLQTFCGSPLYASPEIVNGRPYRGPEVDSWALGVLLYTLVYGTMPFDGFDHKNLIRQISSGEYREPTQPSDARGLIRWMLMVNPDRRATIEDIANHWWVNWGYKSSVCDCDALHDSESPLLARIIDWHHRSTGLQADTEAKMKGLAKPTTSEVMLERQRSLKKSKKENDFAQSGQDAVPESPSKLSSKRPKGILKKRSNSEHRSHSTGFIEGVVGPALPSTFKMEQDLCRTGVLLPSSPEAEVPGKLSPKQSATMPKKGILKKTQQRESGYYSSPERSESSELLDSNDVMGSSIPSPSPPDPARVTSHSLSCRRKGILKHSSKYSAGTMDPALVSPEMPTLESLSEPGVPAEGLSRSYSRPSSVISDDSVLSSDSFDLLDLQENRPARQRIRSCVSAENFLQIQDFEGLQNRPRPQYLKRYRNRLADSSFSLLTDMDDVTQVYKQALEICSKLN
How it is done: as §1, §2, §3

The target of assay [6] is Met (h) (Homo sapiens, UniProt P08581). As for the experimental part: as §1, §2, §3
Met (h), sequence (P08581 25-1390): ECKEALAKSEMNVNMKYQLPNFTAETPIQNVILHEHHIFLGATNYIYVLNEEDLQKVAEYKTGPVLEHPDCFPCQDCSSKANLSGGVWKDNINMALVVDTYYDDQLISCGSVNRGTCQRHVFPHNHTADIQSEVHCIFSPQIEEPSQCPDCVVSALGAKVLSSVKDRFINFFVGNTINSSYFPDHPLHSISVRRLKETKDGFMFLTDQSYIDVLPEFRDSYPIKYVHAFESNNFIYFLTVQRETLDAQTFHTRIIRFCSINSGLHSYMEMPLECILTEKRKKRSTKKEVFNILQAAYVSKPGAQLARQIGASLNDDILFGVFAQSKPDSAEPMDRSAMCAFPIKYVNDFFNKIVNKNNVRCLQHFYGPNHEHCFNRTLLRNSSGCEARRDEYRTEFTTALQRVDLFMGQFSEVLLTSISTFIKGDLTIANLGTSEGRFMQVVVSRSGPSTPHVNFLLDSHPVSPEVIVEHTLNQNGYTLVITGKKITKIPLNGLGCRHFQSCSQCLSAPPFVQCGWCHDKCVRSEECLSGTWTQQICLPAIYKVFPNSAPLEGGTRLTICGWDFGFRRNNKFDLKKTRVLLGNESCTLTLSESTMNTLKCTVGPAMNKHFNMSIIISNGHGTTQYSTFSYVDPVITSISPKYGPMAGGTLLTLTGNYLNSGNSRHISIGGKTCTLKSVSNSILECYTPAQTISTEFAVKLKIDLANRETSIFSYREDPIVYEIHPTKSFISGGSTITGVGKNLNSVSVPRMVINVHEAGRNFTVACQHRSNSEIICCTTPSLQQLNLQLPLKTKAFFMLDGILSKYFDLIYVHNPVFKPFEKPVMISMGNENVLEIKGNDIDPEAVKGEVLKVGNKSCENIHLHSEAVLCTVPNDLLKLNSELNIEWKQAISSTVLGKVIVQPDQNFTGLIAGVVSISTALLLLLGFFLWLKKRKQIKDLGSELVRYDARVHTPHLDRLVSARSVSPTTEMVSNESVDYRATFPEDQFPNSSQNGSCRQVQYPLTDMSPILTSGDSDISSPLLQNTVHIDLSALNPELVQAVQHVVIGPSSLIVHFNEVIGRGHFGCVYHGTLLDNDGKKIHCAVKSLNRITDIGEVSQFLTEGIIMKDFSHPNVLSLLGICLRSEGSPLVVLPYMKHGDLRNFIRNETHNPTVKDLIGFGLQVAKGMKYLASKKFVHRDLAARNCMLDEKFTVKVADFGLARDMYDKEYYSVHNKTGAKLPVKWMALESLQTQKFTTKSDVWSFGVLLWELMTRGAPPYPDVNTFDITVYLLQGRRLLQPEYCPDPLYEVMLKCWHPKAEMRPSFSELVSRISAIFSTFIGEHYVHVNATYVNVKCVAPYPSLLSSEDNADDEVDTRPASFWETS
Assay [7] concerns the target T5, NLK (h) (Homo sapiens, UniProt Q9UBE8).
T5 construct: purchased Millipore
T5 sequence (Q9UBE8 1-527): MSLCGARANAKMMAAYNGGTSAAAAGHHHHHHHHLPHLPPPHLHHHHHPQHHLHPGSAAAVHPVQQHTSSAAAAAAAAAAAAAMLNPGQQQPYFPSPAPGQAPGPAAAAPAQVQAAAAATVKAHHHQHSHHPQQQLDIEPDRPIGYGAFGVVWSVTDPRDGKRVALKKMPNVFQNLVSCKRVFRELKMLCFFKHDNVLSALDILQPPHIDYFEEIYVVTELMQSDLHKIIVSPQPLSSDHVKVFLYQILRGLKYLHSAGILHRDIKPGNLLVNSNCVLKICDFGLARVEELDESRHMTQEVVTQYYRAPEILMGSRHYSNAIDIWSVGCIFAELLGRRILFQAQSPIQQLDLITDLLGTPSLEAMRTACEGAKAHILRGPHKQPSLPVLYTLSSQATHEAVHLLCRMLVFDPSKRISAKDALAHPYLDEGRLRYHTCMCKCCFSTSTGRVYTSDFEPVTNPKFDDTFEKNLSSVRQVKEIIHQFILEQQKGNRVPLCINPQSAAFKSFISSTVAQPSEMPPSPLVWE
As for the experimental part: as §1, §2, §3

Assay [8] concerns the target FGFR3 (h) (Homo sapiens, UniProt P22607). As for the experimental part: as §1, §2, §3

Consider four sequences from US10500249B2, “Compositions and methods for preventing or treating diseases, conditions, or processes characterized by aberrant fibroblast proliferation and extracellular matrix deposition” (MOERAE MATRIX, INC., priority 2014, dated 2019).

FGFR3 (h), sequence (P22607 23-806): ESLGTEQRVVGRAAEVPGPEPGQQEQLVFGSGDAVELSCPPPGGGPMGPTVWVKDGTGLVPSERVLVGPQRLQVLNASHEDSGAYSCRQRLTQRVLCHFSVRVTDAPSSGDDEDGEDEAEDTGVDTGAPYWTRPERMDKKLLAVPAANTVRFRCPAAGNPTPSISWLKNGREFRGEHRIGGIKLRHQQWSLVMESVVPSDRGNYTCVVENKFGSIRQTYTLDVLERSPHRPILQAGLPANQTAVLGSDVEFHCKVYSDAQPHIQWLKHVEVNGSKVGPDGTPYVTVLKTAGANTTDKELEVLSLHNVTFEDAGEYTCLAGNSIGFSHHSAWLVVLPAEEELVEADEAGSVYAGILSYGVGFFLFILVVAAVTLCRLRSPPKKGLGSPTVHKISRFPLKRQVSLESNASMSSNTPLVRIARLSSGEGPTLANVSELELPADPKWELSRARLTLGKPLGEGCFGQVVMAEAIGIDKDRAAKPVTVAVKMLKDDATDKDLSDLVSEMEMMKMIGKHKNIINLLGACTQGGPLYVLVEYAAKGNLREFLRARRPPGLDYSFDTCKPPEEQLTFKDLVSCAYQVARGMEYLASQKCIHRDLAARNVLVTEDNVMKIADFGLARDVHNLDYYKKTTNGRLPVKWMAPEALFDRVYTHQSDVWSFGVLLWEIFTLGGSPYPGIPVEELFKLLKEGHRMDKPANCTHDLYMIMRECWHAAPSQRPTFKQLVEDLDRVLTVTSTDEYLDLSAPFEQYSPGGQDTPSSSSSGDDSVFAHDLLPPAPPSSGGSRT
T1 sequence (Q13555 whole entry): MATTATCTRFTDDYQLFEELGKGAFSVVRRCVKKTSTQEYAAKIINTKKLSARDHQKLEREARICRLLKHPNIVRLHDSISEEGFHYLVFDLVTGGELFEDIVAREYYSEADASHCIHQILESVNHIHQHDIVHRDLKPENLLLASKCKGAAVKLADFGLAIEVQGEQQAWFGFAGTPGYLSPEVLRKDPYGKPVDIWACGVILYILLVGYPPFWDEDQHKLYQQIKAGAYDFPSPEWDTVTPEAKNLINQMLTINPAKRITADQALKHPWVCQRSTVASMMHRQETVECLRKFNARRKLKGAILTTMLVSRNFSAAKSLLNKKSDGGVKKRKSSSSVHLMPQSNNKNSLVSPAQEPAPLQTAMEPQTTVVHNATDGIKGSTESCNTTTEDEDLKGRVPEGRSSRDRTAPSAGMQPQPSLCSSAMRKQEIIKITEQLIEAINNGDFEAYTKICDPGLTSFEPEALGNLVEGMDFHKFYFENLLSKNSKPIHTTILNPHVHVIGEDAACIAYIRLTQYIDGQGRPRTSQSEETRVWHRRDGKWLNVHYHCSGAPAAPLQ
ZIPK (h), sequence (O43293 whole entry): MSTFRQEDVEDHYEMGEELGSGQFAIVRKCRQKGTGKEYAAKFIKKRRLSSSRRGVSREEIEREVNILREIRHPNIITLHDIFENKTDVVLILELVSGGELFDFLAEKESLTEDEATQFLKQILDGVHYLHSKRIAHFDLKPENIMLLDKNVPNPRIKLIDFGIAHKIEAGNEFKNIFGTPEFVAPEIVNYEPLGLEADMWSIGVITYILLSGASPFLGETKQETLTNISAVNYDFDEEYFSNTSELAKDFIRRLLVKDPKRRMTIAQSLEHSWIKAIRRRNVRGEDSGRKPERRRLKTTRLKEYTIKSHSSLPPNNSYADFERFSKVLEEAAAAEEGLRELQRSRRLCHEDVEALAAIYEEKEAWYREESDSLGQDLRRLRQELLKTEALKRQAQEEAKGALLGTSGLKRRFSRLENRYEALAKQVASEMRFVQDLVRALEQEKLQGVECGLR

Turning to FAKLAARLYRKALARQLGVAA [MMI-0300], the “% activity” value is given as 5% in assay [1]; 21% in assay [2]; 98% in assay [3]; 28% in assay [4]; 78% in assay [5]; 65% in assay [6]. The “% activity” value in assay [7] is recorded as 87%.

With KAFAKLAARLYRKALARQLGVAA [MMI-0400], the “% activity” value in assay [8] was found to be 0%; in assay [1], 3%; in assay [2], 16%; in assay [3] it was 94%; in assay [4], 13%; in assay [5] it was 69%. The “% activity” value in assay [6] stood at 62%; in assay [7], 90%.

As for “YARAAARQARAKALNRQLGVA (Mammalian) [MMI-0200]”, the “% activity” value is reported as 208% in assay [8]; 94% in assay [1]; 83% in assay [2]; 91% in assay [3]; 67% in assay [4]; 93% in assay [5]. For the same sequence, in assay [6], the “% activity” value is 71%.

Turning to “HRRIKAWLKKIKALARQLGVAA (Mammalian) [MMI-0500]”, the “% activity” value in assay [8] was 10%; in assay [1], 3%; in assay [2], −1%; in assay [3], 92%; in assay [4], 1%; in assay [5], 20%. Also, the “% activity” value amounted to 27% in assay [6] and 19% in assay [7].
